Measured values published in patent publication US10954305B2 (Immunomedics, Inc., priority 2016, dated 2021).
“Also recorded” adds a separate entry of the source.

Columns and labels:
[1] = test system: SK-MES-1 human squamous cell lung tumors; test: SK-MES-1 xenograft therapy; type: in vivo, nude mice; conditions: 0.4 mg/kg; 28 days
Protocol: Therapeutic efficacy of hRS7-SN-38 ADC in several solid tumor-xenograft disease models.
Tumor volume (TV) was determined by measurements in 2 dimensions using calipers, with volumes defined as: L×w^2/2, where L is the longest dimension of the tumor and w is the shortest.

[2] = molecular target: T1, human neonatal receptor (FcRn) (Homo sapiens, UniProt P55899); test: surface plasmon resonance binding (BIACORE); conditions: three independent runs
T1 construct: made in house
T1 sequence (P55899 24-297 limits assumed): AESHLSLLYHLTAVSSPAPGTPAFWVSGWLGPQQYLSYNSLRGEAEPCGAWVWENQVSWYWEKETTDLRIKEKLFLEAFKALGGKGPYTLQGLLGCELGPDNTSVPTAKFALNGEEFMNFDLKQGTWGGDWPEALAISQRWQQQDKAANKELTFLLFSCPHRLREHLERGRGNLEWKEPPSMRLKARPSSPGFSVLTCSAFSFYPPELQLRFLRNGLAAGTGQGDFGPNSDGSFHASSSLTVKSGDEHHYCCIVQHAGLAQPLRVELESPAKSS
T1 sequence (P61769 21-119 partner): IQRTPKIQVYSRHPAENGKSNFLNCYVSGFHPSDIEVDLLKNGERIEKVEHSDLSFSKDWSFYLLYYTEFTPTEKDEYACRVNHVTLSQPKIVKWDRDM
Protocol: (§1) Briefly, rhTrop-2/TACSTD2 (Sino Biological, Inc.) or recombinant human neonatal receptor (FcRn), produced as described (Wang et al., 2011, Drug Metab Dispos 39:1469-77), was immobilized with an amine coupling kit (GE Healthcare; Cat. No. BR-1000-50) on a CM5 sensor chip (GE Healthcare; Cat. #BR-1000-12) following manufacturer's instructions for a low-density chip. […] Each set would make up a separate run on the BIACORE (BIACORE-X; Biacore Inc., Piscataway, N.J.) and data were analyzed using BIAevaluation Software (Biacore Inc., v4.1). Analysis was performed with a 1:1 (Langmuir) Binding Model and Fit, using all five concentration points for each sample run to determine the best fit (lowest χ^2 value). The KD value was calculated using the formula KD=kd1/ka1, where kd1 is the dissociation rate-constant and ka1 is the association-rate constant.

rhTrop-2/TACSTD2 = molecular target: T2, rhTrop-2/TACSTD2 (Homo sapiens, UniProt P09758); test: surface plasmon resonance binding (BIACORE); conditions: three independent runs
T2 construct: purchased Sino Biological, Inc
T2 sequence (P09758 27-323): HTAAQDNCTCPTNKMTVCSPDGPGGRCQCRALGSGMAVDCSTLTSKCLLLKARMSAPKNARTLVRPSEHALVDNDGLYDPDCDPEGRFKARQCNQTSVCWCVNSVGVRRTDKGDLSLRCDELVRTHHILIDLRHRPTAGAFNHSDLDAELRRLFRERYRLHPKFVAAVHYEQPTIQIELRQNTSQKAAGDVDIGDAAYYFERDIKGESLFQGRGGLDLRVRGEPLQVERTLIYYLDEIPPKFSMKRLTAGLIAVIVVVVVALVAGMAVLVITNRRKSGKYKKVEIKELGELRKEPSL
Protocol: as §1

CDC activity = type: cell-based
COLO 205 tumors = test: COLO 205 xenograft therapy; conditions: 0.4 mg/kg, q4dx8; 28-day treatment period
Protocol: NCr female athymic nude (nu/nu) mice, 4 to 8 weeks old, and male Swiss-Webster mice, 10 weeks old, were purchased from Taconic Farms. […] Tumor volume (TV) was determined by measurements in 2 dimensions using calipers, with volumes defined as: L×w^2/2, where L is the longest dimension of the tumor and w is the shortest. […] This dosing frequency reflected a consideration of the conjugate's serum half-life in vitro, to allow a more continuous exposure to the ADC.

p21^Waf1/Cip1 in Calu-3 = test: p21Waf1/Cip1 expression; type: cell-based, human
Excerpt: SN-38 is known to activate several signaling pathways in cells, leading to apoptosis (e.g., Cusack et al., 2001, Cancer Res 61:3535-40; Liu et al. 2009, Cancer Lett 274:47-53; Lagadec et al., 2008, Br J Cancer 98:335-44). Our initial studies examined the expression of 2 proteins involved in early signaling events (p21^Waf1/Cip1 and p53) and 1 late apoptotic event [cleavage of poly-ADP-ribose polymerase (PARP)] in vitro (not shown).

[3] = tolerability in Cynomolgus monkeys; type: in vivo
Protocol: FIG. 6C. […] All animals were bled on day −1, 3, and 6. Four monkeys were bled on day 11 in the 0.96 mg/kg group, 3 in the 1.92 mg/kg group. Changes in neutrophil counts in Cynomolgus monkeys.
FIG. 6D. […] All animals were bled on day −1, 3, and 6. Four monkeys were bled on day 11 in the 0.96 mg/kg group, 3 in the 1.92 mg/kg group. Changes in platelet counts in Cynomolgus monkeys.

[4] = test system: metastatic pancreatic cancer; test: Phase I/II clinical trial of IMMU-132, PDC; type: in vivo, human
[5] = Phase I/II clinical trial of IMMU-132, pharmacokinetics; conditions: for serum hRS7 IgG, Max / serum hRS7 IgG, Min / serum intact ADC, Max / serum intact ADC, Min / serum hRS7 IgG, Mean / serum intact ADC, Mean: 0.5 h after first dose
Protocol: SN-38 was measured by HPLC.
Blood samples were taken within ˜30 min from the end of the infusion (e.g., peak) and then prior to each subsequent injection (e.g., trough). […] Serum samples from seven patients also were assayed for SN-38 content, both total (representing SN-38 bound to the IgG and free) and free SN-38 (i.e., unbound SN-38).

[6] = Phase I/II clinical trial of IMMU-132, immunogenicity; type: in vivo, human; conditions: repeated dosing
HCC1395 (Trop-2−) = test: dsDNA breaks, rH2AX flow cytometry; type: cell-based, human; conditions: untreated baseline 122
Protocol: For drug activity testing, HCC1806 and HCC1395 TNBC cell lines cells were seeded in 6-well plates at 5×10^5 cells/well and held at 37° C. overnight. […] The signal intensity of rH2AX was measured by flow cytometry using a BD FACSCalibur (BD Biosciences, San Jose, Calif.).
The cells were then washed to remove unbound conjugate, and then incubated overnight at 37° C.

[7] = mouse, in vivo
NCI-N87-S-120 tumors = test: SN-38-resistant xenograft therapy; conditions: IMMU-132 0.5 mg twice weekly ×4 weeks; irinotecan 40 mg/kg q2dx5
Protocol: Mice were euthanized once tumors grew to >1.0 cm^3 in size.
NCr female athymic nude (nu/nu) mice, 4 weeks old, were purchased from Taconic Farms. […] Tumor volume (TV) was determined by measurements in two dimensions using calipers, with volumes defined as: L×w^2/2, where L is the longest dimension of the tumor and w the shortest. […] Control mice received each agent alone. […] Mice were euthanized and deemed to have succumbed to disease once tumors grew to >1.0 cm^3 in size.

[8] = tolerability in Swiss-Webster mice; conditions: normal mice, over 1 week

## hRS7 IgG
[1]
  tumor volume (TV): 1.30±1.08 cm^3
[2]
  Kd: 92.4 ± 5.7 nM
rhTrop-2/TACSTD2
  Kd: 0.51 ± 0.04 nM
CDC activity
  CDC activity: no CDC activity
COLO 205 tumors
  tumor volume (TV): 1.77±0.93 cm^3

## IMMU-132
p21^Waf1/Cip1 in Calu-3
  p21^Waf1/CiP1 expression over free SN-38: more than 2 fold
[3]; cynomolgus monkey, in vivo
  MTD: 2×0.96 and 1.92
  human equivalent dose of MTD: 2×0.3 to 0.6
[3]; cynomolgus monkey, in vivo, 0.96 mg/kg
  blood counts: only transient decreases in blood counts
[3]; mild and reversible toxicity
  tolerated dose: 0.96 mg/kg/dose
[4]; 3 patients with stable disease
  decrease in serum CA19-9 titers: 23 to 72%
[4]; 8 patients
  duration of stable disease, range: 8 to 21.4 wks
[4]; 13 CT-assessable PDC patients
  stable disease: 62%
[4]; CT-assessable PDC patients, 8.0 weeks in last prior therapy
  median TTP / duration of SD: 12.7 wks
[4]; PDC patients
  TTP, range: 2 to 21.4 wks
[4]; Phase I, N=7
  time to progression, range: 1.0 to 4.0 months
[4]; all 14 PDC patients
  median TTP: 11.9 wks
[5]; 8 mg/kg
  serum hRS7 IgG, Max: 249.0 µg/mL
  serum hRS7 IgG, Min: 96.0 µg/mL
  serum intact ADC, Max: 169.3 µg/mL
  serum intact ADC, Min: 95.0 µg/mL
[5]; 8 mg/kg, N 7
  serum hRS7 IgG, Mean: 193.1 µg/mL
  serum intact ADC, Mean: 141.5 µg/mL
[5]; 10 mg/kg
  serum hRS7 IgG, Max: 285.85 µg/mL
  serum hRS7 IgG, Min: 152.00 µg/mL
  serum intact ADC, Max: 237.39 µg/mL
  serum intact ADC, Min: 144.00 µg/mL
[5]; 10 mg/kg, N 5
  serum hRS7 IgG, Mean: 203.35 µg/mL
  serum intact ADC, Mean: 185.77 µg/mL
[5]; 12 mg/kg
  serum hRS7 IgG, Max: 400.0 µg/mL
  serum hRS7 IgG, Min: 168.9 µg/mL
  serum intact ADC, Max: 311.0 µg/mL
  serum intact ADC, Min: 98.0 µg/mL
[5]; 12 mg/kg, N 9
  serum hRS7 IgG, Mean: 239.2 µg/mL
  serum intact ADC, Mean: 183.3 µg/mL
[5]; 18 mg/kg
  serum hRS7 IgG, Max: 499.00 µg/mL
  serum hRS7 IgG, Min: 321.48 µg/mL
  serum intact ADC, Max: 423.00 µg/mL
  serum intact ADC, Min: 162.80 µg/mL
[5]; 18 mg/kg, N 3
  serum hRS7 IgG, Mean: 409.16 µg/mL
  serum intact ADC, Mean: 258.27 µg/mL
[5]; 30 min after end of infusion
  SN-38 in serum bound to IgG, peak samples: > 96%
[5]; HPLC
  SN-38 in serum bound to IgG: > 95%
[5]; human, in vivo
  clearance of conjugate from serum: ≤ 3 days
[5]; one patient, 12 mg/kg
  SN-38 bound to IgG, peak sample: 4000 ng/mL
[5]; patient 15
  free SN-38, 30-min serum: 88 to 102 ng/mL
  free SN-38 as share of total SN-38: 2.4% to 3.6%
[5]; patient 15, 6th cycle, 6.0 mg/kg
  total SN-38, 30-min serum: 2,381 ng/mL
[5]; patient 15, C1D1, 12 mg/kg
  total SN-38, 30-min serum: 3,930 ng/mL
[5]; patient 15, C1D2, 9.0 mg/kg
  total SN-38, 30-min serum: 2,947 ng/mL
[5]; patient #25, 13.5 mg/kg
  SN-38G share of total SN-38+SN-38G: 11.6%
[5]; patient #25, 13.5 mg/kg, 11 peak samples
  total SN-38 (acid-hydrolyzed), average: 3309.8 ± 601.8 ng/mL
[5]; patient #25, 18 mg/kg
  SN-38G share of total unbound SN-38+SN-38G: 14.4%
  free SN-38 (non-hydrolyzed): 155.2 ng/mL
  total SN-38 (acid-hydrolyzed): 5,089 ng/mL
[5]; serum drawn immediately before next dose
  intact conjugate in trough samples: no sacituzumab govitecan could be detected
[6]
  anti-hRS7 / anti-SN-38 antibody response: No anti-hRS7 or anti-SN-38 antibodies were detected; also recorded: no anti-hRS7 or anti-SN-38 antibody response has been detected; also recorded: none of the patients developed an antibody response to IMMU-132 or SN-38
[6]; listed as sacituzumab govitecan
  anti-hRS7 / anti-SN-38 antibody response: no antibody response to the hRS7 IgG or SN-38 was detected
HCC1395 (Trop-2−)
  Median fluorescence intensity (rH2AX): 123
[7]
  chloride levels, range: 116 to 127 mmol/L
[7]; 8 mg/kg
  glucose levels, range: 273 to 320 mg/dL
NCI-N87-S-120 tumors
  survival benefit: no significant survival benefit
[8]
  cumulative dose without acute toxicity: 24 mg/kg SN-38
